According to US20230193248A1:

T1: M15-K(biotin)-AAR (SEQ ID NO: 8) peptide
T1 chain: KAAR


Assays:
[1] = target: M15-L-P1 target polypeptide, P1 = Q
[2] = target: M15-L-P1 target polypeptide, P1 = V
[3] = target: M15-L-P1 target polypeptide, P1 = I
[4] = target: M15-L-P1 target polypeptide, P1 = M
[5] = target: M15-L-P1 target polypeptide, P1 = A
[6] = target: M15-L-P1 target polypeptide, P1 = L
[7] = target: T1, M15-K(biotin)-AAR (SEQ ID NO: 8) peptide

Row | Protein | cleavage of single labeled NTAA [1] | cleavage of single labeled NTAA [2] | cleavage of single labeled NTAA [3] | cleavage of single labeled NTAA [4] | cleavage of single labeled NTAA [5] | cleavage of single labeled NTAA [6] | percentage of conversion to cleavage product M15-K(biotin)-A (HPLC, UV absorbance at 254 nm) [7]
1 | first selected modified cleavase (M15-L Z001) (protein) MHKTRLVAALAAALATLAPAAWADEGMWVPQQLPEIAGALKKAGLKLDPKQLSDLTGDPMGAVVSLGGCTGSFVSPQGLVATNHHCAYGAIQLNSTPEKNLIKDGFNAPTQADELSAGPNARIYVLEGITDVTAQAKAAMAAAGNDPVARANALEAFEKKITSDCEAEPGYRCRVYSFMGGITYRLFKNLEIKDVRLVYAPPSSVGKFGGDIDMGMWPTHTGDFSFYRAYVGKDGKPAPYSKDNVPYRPKHWLKIADTPLGEGDFVMVAGYPGRTDRYALVAEFENTQNWLYPAISKAYKDQIALVEAAAKDNPEIAVKYAAALAGWNRTSKNFDGQLEGFKRNDVLAIKRREEAAVLEWLRARGKAGTPALEAHAALVKLVADTARTQERDLVLGSFNRTGIIGVAVNLYRLAIERQKPDAEREPGYQQRDLPVIEGSLKQMERRYVPAMDRQLRAYWLDRYVALPAAQHVAAVDAWLGGSDKAAAEAALARLDQSRLGSLEERLKWFNADRAAFEASTDPAIQYAVAVMPTLLAMEQQAKTRYGVALEARPRYLQAVVDYKKSKGQAVYPDANSTLRITYGHVKGYTGLNGKVYTPFTTLEEVAAKETGVEPFDNPKALLEAVAAKRYAGLADARLGTVPVNFLADLDITGGNSGSPVLDANGRLVGLAFAGTLESVASNWVFDPVLTRMISVDQRYMRWIMQEVMPAPQLLEELGVPPRQ | provided 100% cleavage | provided 100% cleavage | provided 100% cleavage | provided 100% cleavage | provided 100% cleavage | provided 100% cleavage | –
2 | engineered dipeptidyl peptidase clone (SEQ ID NO: 11) derived from dipeptidyl peptidase from Thermomonas hydrothermalis (SEQ ID NO: 10) (protein) DEGMWVPQQLPEIAGALKKAGLKLDPKQLSDLTGDPMGAVVSLGGCTGSFVSPQGLVATNHHCAYGAIQLNSTPEKNLIKDGFNAPTQADELSAGPNARIYVLEGITDVTAQAKAAMAAAGNDPVARANALEAFEKKITSDCEAEPGYRCRVYSFMGGITYRLFKNLEIKDVRLVYAPPSSVGKFGGDIDMGMWPTHTGDFSFYRAYVGKDGKPAPYSKDNVPYRPKHWLKIADTPLGEGDFVMVAGYPGRTDRYALVAEFENTQNWLYPAISKAYKDQIALVEAAAKDNPEIAVKYAAALAGWNRTSKNFDGQLEGFKRNDVLAIKRREEAAVLEWLRARGKAGTPALEAHAALVKLVADTARTQERDLVLGSFNRTGIIGVAVNLYRLAIERQKPDAEREPGYQQRDLPVIEGSLKQMERRYVPAMDRQLRAYWLDRYVALPAAQHVAAVDAWLGGSDKAAAEAALARLDQSRLGSLEERLKWFNADRAAFEASTDPAIQYAVAVMPTLLAMEQQAKTRYGVALEARPRYLQAVVDYKKSKGQAVYPDANSTLRITYGHVKGYTGLNGKVYTPFTTLEEVAAKETGVEPFDNPKALLEAVAAKRYAGLADARLGTVPVNFLADLDITGGNSGSPVLDANGRLVGLAFAVTLESVASNWVFDPVLTRMISVDQRYMRWIMQEVMPAPQLLEELGVPPRQ | – | – | – | – | – | – | about 10% of the model peptide was converted to the cleavage product, M15-K(biotin)-A
